± gives the uncertainty stated by the source.
B1: Mineralocorticoid receptor, residues 600 to 675; numbered along this chain, P08235 (parent)
chain: SKICLVCGDEASGCHYGVVTCGSCKVFFKRAVEGQHNYLCAGRNDCIIDKIRRKNCPACRLQKCLQAGMNLGARKS

Variants of: B1
Experiment: abundance fitness (aPCA) (normalised: wild type 0, dead -1); higher = more abundant; growth selection in yeast, the domain comes from the species named
Conditions: Homo sapiens

Variant	abundance fitness
SKICLVCGDEASGCHIGVVTCGSCKVFFKRAVEGQHNYLCAGRNDCIIDKIRRKNCPACRLQKCLQAGMNLGARKS [Y16I]	-0.213 ± 0.099
SKICLVCGDEASGCHCGVVTCGSCKVFFKRAVEGQHNYLCAGRNDCIIDKIRRKNCPACRLQKCLQAGMNLGARKS [Y16C]	-0.054 ± 0.083
SKICLVCGDEASGCHVGVVTCGSCKVFFKRAVEGQHNYLCAGRNDCIIDKIRRKNCPACRLQKCLQAGMNLGARKS [Y16V]	0.013 ± 0.043
SKICLVCGDEASGCHTGVVTCGSCKVFFKRAVEGQHNYLCAGRNDCIIDKIRRKNCPACRLQKCLQAGMNLGARKS [Y16T]	-0.027 ± 0.049
SKICLVCGDEASGCHKGVVTCGSCKVFFKRAVEGQHNYLCAGRNDCIIDKIRRKNCPACRLQKCLQAGMNLGARKS [Y16K]	-0.081 ± 0.057
SKICLVCGDEASGCHGGVVTCGSCKVFFKRAVEGQHNYLCAGRNDCIIDKIRRKNCPACRLQKCLQAGMNLGARKS [Y16G]	-0.061 ± 0.048
SKICLVCGDEASGCHSGVVTCGSCKVFFKRAVEGQHNYLCAGRNDCIIDKIRRKNCPACRLQKCLQAGMNLGARKS [Y16S]	-0.097 ± 0.049
SKICLVCGDEASGCHWGVVTCGSCKVFFKRAVEGQHNYLCAGRNDCIIDKIRRKNCPACRLQKCLQAGMNLGARKS [Y16W]	0.024 ± 0.053
SKICLVCGDEASGCHDGVVTCGSCKVFFKRAVEGQHNYLCAGRNDCIIDKIRRKNCPACRLQKCLQAGMNLGARKS [Y16D]	-0.025 ± 0.099
SKICLVCGDEASGCHQGVVTCGSCKVFFKRAVEGQHNYLCAGRNDCIIDKIRRKNCPACRLQKCLQAGMNLGARKS [Y16Q]	-0.068 ± 0.057
SKICLVCGDEASGCHFGVVTCGSCKVFFKRAVEGQHNYLCAGRNDCIIDKIRRKNCPACRLQKCLQAGMNLGARKS [Y16F]	-0.053 ± 0.093
SKICLVCGDEASGCHAGVVTCGSCKVFFKRAVEGQHNYLCAGRNDCIIDKIRRKNCPACRLQKCLQAGMNLGARKS [Y16A]	-0.039 ± 0.046
SKICLVCGDEASGCHLGVVTCGSCKVFFKRAVEGQHNYLCAGRNDCIIDKIRRKNCPACRLQKCLQAGMNLGARKS [Y16L]	-0.104 ± 0.039
SKICLVCGDEASGCHHGVVTCGSCKVFFKRAVEGQHNYLCAGRNDCIIDKIRRKNCPACRLQKCLQAGMNLGARKS [Y16H]	-0.022 ± 0.082
SKICLVCGDEASGCHNGVVTCGSCKVFFKRAVEGQHNYLCAGRNDCIIDKIRRKNCPACRLQKCLQAGMNLGARKS [Y16N]	-0.147 ± 0.11
SKICLVCGDEASGCHRGVVTCGSCKVFFKRAVEGQHNYLCAGRNDCIIDKIRRKNCPACRLQKCLQAGMNLGARKS [Y16R]	-0.075 ± 0.039
SKICLVCGDEASGCHPGVVTCGSCKVFFKRAVEGQHNYLCAGRNDCIIDKIRRKNCPACRLQKCLQAGMNLGARKS [Y16P]	-0.125 ± 0.069
SKICLVCGDEASGCHYGCVTCGSCKVFFKRAVEGQHNYLCAGRNDCIIDKIRRKNCPACRLQKCLQAGMNLGARKS [V18C]	0.112 ± 0.061

Variant	abundance fitness
SKICLVCGDEASGCHYGMVTCGSCKVFFKRAVEGQHNYLCAGRNDCIIDKIRRKNCPACRLQKCLQAGMNLGARKS [V18M]	-0.233 ± 0.25
SKICLVCGDEASGCHYGYVTCGSCKVFFKRAVEGQHNYLCAGRNDCIIDKIRRKNCPACRLQKCLQAGMNLGARKS [V18Y]	-0.284 ± 0.1
SKICLVCGDEASGCHYGWVTCGSCKVFFKRAVEGQHNYLCAGRNDCIIDKIRRKNCPACRLQKCLQAGMNLGARKS [V18W]	-0.457 ± 0.066
SKICLVCGDEASGCHYGRVTCGSCKVFFKRAVEGQHNYLCAGRNDCIIDKIRRKNCPACRLQKCLQAGMNLGARKS [V18R]	-0.078 ± 0.048
SKICLVCGDEASGCHYGKVTCGSCKVFFKRAVEGQHNYLCAGRNDCIIDKIRRKNCPACRLQKCLQAGMNLGARKS [V18K]	-0.101 ± 0.22
SKICLVCGDEASGCHYGDVTCGSCKVFFKRAVEGQHNYLCAGRNDCIIDKIRRKNCPACRLQKCLQAGMNLGARKS [V18D]	-0.155 ± 0.092
SKICLVCGDEASGCHYGHVTCGSCKVFFKRAVEGQHNYLCAGRNDCIIDKIRRKNCPACRLQKCLQAGMNLGARKS [V18H]	-0.333 ± 0.13
SKICLVCGDEASGCHYGGVTCGSCKVFFKRAVEGQHNYLCAGRNDCIIDKIRRKNCPACRLQKCLQAGMNLGARKS [V18G]	-0.117 ± 0.042
SKICLVCGDEASGCHYGLVTCGSCKVFFKRAVEGQHNYLCAGRNDCIIDKIRRKNCPACRLQKCLQAGMNLGARKS [V18L]	-0.06 ± 0.044
SKICLVCGDEASGCHYGTVTCGSCKVFFKRAVEGQHNYLCAGRNDCIIDKIRRKNCPACRLQKCLQAGMNLGARKS [V18T]	-0.444 ± 0.5
SKICLVCGDEASGCHYGEVTCGSCKVFFKRAVEGQHNYLCAGRNDCIIDKIRRKNCPACRLQKCLQAGMNLGARKS [V18E]	-0.202 ± 0.06
SKICLVCGDEASGCHYGFVTCGSCKVFFKRAVEGQHNYLCAGRNDCIIDKIRRKNCPACRLQKCLQAGMNLGARKS [V18F]	-0.274 ± 0.098
SKICLVCGDEASGCHYGIVTCGSCKVFFKRAVEGQHNYLCAGRNDCIIDKIRRKNCPACRLQKCLQAGMNLGARKS [V18I]	0.045 ± 0.22
SKICLVCGDEASGCHYGQVTCGSCKVFFKRAVEGQHNYLCAGRNDCIIDKIRRKNCPACRLQKCLQAGMNLGARKS [V18Q]	-0.15 ± 0.067
SKICLVCGDEASGCHYGPVTCGSCKVFFKRAVEGQHNYLCAGRNDCIIDKIRRKNCPACRLQKCLQAGMNLGARKS [V18P]	-0.157 ± 0.062
SKICLVCGDEASGCHYAVVTCGSCKVFFKRAVEGQHNYLCAGRNDCIIDKIRRKNCPACRLQKCLQAGMNLGARKS [G17A]	-0.108 ± 0.043
SKICLVCGDEASGCHYRVVTCGSCKVFFKRAVEGQHNYLCAGRNDCIIDKIRRKNCPACRLQKCLQAGMNLGARKS [G17R]	-0.046 ± 0.04
SKICLVCGDEASGCHYMVVTCGSCKVFFKRAVEGQHNYLCAGRNDCIIDKIRRKNCPACRLQKCLQAGMNLGARKS [G17M]	-0.055 ± 0.057
